Laboratory results published in publication PMC11402830.

Target: T1, human peptidyl arginine deiminase 6 (human), Q6TGC4
T1 chain: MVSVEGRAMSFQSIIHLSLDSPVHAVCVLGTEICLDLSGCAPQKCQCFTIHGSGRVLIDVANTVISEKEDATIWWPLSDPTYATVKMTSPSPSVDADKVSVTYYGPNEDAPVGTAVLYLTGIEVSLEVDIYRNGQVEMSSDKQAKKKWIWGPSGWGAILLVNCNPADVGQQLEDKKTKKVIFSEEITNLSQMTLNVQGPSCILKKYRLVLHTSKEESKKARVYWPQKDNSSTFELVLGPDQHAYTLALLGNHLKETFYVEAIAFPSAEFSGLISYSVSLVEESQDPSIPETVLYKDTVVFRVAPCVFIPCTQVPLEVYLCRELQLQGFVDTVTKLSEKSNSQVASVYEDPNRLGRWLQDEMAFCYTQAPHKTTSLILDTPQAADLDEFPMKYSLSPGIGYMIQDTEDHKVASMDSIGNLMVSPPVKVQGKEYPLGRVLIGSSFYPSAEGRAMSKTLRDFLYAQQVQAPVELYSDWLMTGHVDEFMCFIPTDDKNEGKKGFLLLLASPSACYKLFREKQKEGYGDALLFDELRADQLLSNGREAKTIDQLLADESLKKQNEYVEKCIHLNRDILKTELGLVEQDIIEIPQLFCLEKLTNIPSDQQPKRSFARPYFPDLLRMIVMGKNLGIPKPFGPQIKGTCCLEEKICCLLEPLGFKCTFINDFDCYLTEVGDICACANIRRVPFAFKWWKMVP
Assay: mass photometry; hPADI6 at 4 nM (diluted to about 40 nM in 50 mM Tris-HCl pH 7.5, 200 mM NaCl, 1 mM TCEP, then 2 uL into 18 uL PBS), TwoMP instrument; dimer to monomers
Conditions: remark: other sources report otherwise

dimer:monomer ratio at 4 nM (dimer:monomer): 8
stoichiometry N: 2
B1: human peptidyl arginine deiminase 6, Q6TGC4 1-694 (natural protein)
chain: MVSVEGRAMSFQSIIHLSLDSPVHAVCVLGTEICLDLSGCAPQKCQCFTIHGSGRVLIDVANTVISEKEDATIWWPLSDPTYATVKMTSPSPSVDADKVSVTYYGPNEDAPVGTAVLYLTGIEVSLEVDIYRNGQVEMSSDKQAKKKWIWGPSGWGAILLVNCNPADVGQQLEDKKTKKVIFSEEITNLSQMTLNVQGPSCILKKYRLVLHTSKEESKKARVYWPQKDNSSTFELVLGPDQHAYTLALLGNHLKETFYVEAIAFPSAEFSGLISYSVSLVEESQDPSIPETVLYKDTVVFRVAPCVFIPCTQVPLEVYLCRELQLQGFVDTVTKLSEKSNSQVASVYEDPNRLGRWLQDEMAFCYTQAPHKTTSLILDTPQAADLDEFPMKYSLSPGIGYMIQDTEDHKVASMDSIGNLMVSPPVKVQGKEYPLGRVLIGSSFYPSAEGRAMSKTLRDFLYAQQVQAPVELYSDWLMTGHVDEFMCFIPTDDKNEGKKGFLLLLASPSACYKLFREKQKEGYGDALLFDELRADQLLSNGREAKTIDQLLADESLKKQNEYVEKCIHLNRDILKTELGLVEQDIIEIPQLFCLEKLTNIPSDQQPKRSFARPYFPDLLRMIVMGKNLGIPKPFGPQIKGTCCLEEKICCLLEPLGFKCTFINDFDCYLTEVGDICACANIRRVPFAFKWWKMVP
